Measurements published in US20020098189A1 (AstraZeneca / MedImmune, published 2002).

B1: Clone 6 (Fab) (Fab, V domains shown)
VH: QVTLRESGPALVKPTQTLTLTCTFSGFSLSTAGMSVGWIRQPPGKALEWLADIWWDDKKDYNPSLKSRLTISKDTSKNQVVLKVTNMDPADTATYYCARSMITNFYFDVWGQGTTVTVSS
VL: DIQMTQSPSTLSASVGDRVTITCSASSSVGYMHWYQQKPGKAPKLLIYDTFKLASGVPSRFSGSGSGTEFTLTISSLQPDDFATYYCFQGSFYPFTFGGGTKVEIK
B2: Clone 15 (Fab) (Fab, V domains shown)
VH: QVTLRESGPALVKPTQTLTLTCTFSGFSLSTAGMSVGWIRQPPGKALEWLADIWWDGKKSYNPSLKDRLTISKDTSKNQVVLKVTNMDPADTATYYCARDMIFNFYFDVWGQGTTVTVSS
VL: DIQMTQSPSTLSASVGDRVTITCSLSSRVGYMHWYQQKPGKAPKLLIYDTMYQSSGVPSRFSGSGSGTEFTLTISSLQPDDFATYYCFQGSGYPFTFGGGTKVEIK
B3: Clone 12 (Fab) (Fab, V domains shown)
VH: QVTLRESGPALVKPTQTLTLTCTFSGFSLSTAGMSVGWIRQPPGKALEWLADIWWDGKKHYNPSLKDRLTISKDTSKNQVVLKVTNMDPADTATYYCARDMIFNFYFDVWGQGTTVTVSS
VL: DIQMTQSPSTLSASVGDRVTITCSLSSRVGYMHWYQQKPGKAPKLLIYDTFKLSSGVPSRFSGSGSGTEFTLTISSLQPDDFATYYCFQGSGYPFTFGGGTKVEIK
B4: Clone 13 (Fab) (Fab, V domains shown)
VH: QVTLRESGPALVKPTQTLTLTCTFSGFSLSTAGMSVGWIRQPPGKALEWLADIWWDGKKDYNPSLKDRLTISKDTSKNQVVLKVTNMDPADTATYYCARDMIFNFYFDVWGQGTTVTVSS
VL: DIQMTQSPSTLSASVGDRVTITCSASSRVGYMHWYQQKPGKAPKLLIYDTFKLSSGVPSRFSGSGSGTEFTLTISSLQPDDFATYYCFQGSGYPFTFGGGTKVEIK
B5: Clone 11 (Fab) (Fab, V domains shown)
VH: QVTLRESGPALVKPTQTLTLTCTFSGFSLSTPGMSVGWIRQPPGKALEWLADIWWDGKKHYNPSLKDRLTISKDTSKNQVVLKVTNMDPADTATYYCARDMIFNFYFDVWGQGTTVTVSS
VL: DIQMTQSPSTLSASVGDRVTITCSPSSRVGYMHWYQQKPGKAPKLLIYDTMRLASGVPSRFSGSGSGTEFTLTISSLQPDDFATYYCFQGSGYPFTFGGGTKVEIK
B6: Clone 9 (Fab) (Fab, V domains shown)
VH: QVTLRESGPALVKPTQTLTLTCTFSGFSLSTPGMSVGWIRQPPGKALEWLADIWWDDKKHYNPSLKDRLTISKDTSKNQVVLKVTNMDPADTATYYCARDMIFNFYFDVWGQGTTVTVSS
VL: DIQMTQSPSTLSASVGDRVTITCSLSSRVGYMHWYQQKPGKAPKLLIYDTFYLSSGVPSRFSGSGSGTEFTLTISSLQPDDFATYYCFQGSGYPFTFGGGTKVEIK
B7: Clone 17 (whole monoclonal antibody) (antibody, V domains shown)
VH: QVTLRESGPALVKPTQTLTLTCTFSGFSLSTAGMSVGWIRQPPGKALEWLADIWWDDKKDYNPSLKSRLTISKDTSKNQVVLKVTNMDPADTATYYCARSMITNFYFDVWGAGTTVTVSS
VL: DIQMTQSPSTLSASVGDRVTITCSASSSVGYMHWYQQKPGKAPKLLIYDTFKLASGVPSRFSGSGSGTEFTLTISSLQPDDFATYYCFQGSFYPFTFGGGTKLEIK
B8: Clone 8 (Fab) (Fab, V domains shown)
VH: QVTLRESGPALVKPTQTLTLTCTFSGFSLSTAGMSVGWIRQPPGKALEWLADIWWDDKKDYNPSLKSRLTISKDTSKNQVVLKVTNMDPADTATYYCARDMITNFYFDVWGQGTTVTVSS
VL: DIQMTQSPSTLSASVGDRVTITCSASSSVGYMHWYQQKPGKAPKLLIYDTFRLASGVPSRFSGSGSGTEFTLTISSLQPDDFATYYCFQGSGYPFTFGGGTKVEIK
B9: Clone 14 (Fab) (Fab, V domains shown)
VH: QVTLRESGPALVKPTQTLTLTCTFSGFSLSTAGMSVGWIRQPPGKALEWLADIWWDDKKHYNPSLKDRLTISKDTSKNQVVLKVTNMDPADTATYYCARDMIFNWYFDVWGQGTTVTVSS
VL: DIQMTQSPSTLSASVGDRVTITCSPSSRVGYMHWYQQKPGKAPKLLIYDTYRHSSGVPSRFSGSGSGTEFTLTISSLQPDDFATYYCFQGSGYPFTFGGGTKVEIK
B10: Clone 10 (Fab) (Fab, V domains shown)
VH: QVTLRESGPALVKPTQTLTLTCTFSGFSLSTPGMSVGWIRQPPGKALEWLADIWWDGKKHYNPSLKDRLTISKDTSKNQVVLKVTNMDPADTATYYCARDMIFNFYFDVWGQGTTVTVSS
VL: DIQMTQSPSTLSASVGDRVTITCSLSSRVGYMHWYQQKPGKAPKLLIYDTRGLPSGVPSRFSGSGSGTEFTLTISSLQPDDFATYYCFQGSGYPFTFGGGTKVEIK
B11: MEDI-493 (clone 16), IgG1 (COR)/kappa (K102) humanized MAb (antibody, V domains shown)
VH: QVTLRESGPALVKPTQTLTLTCTFSGFSLSTSGMSVGWIRQPPGKALEWLADIWWDDKKDYNPSLKSRLTISKDTSKNQVVLKVTNMDPADTATYYCARSMITNWYFDVWGAGTTVTVSS
VL: DIQMTQSPSTLSASVGDRVTITCKCQLSVGYMHWYQQKPGKAPKLLIYDTSKLASGVPSRFSGSGSGTEFTLTISSLQPDDFATYYCFQGSGYPFTFGGGTKLEIK
B12: Clone 7 (Fab) (Fab, V domains shown)
VH: QVTLRESGPALVKPTQTLTLTCTFSGFSLSTAGMSVGWIRQPPGKALEWLADIWWDDKKDYNPSLKSRLTISKDTSKNQVVLKVTNMDPADTATYYCARDMITNFYFDVWGQGTTVTVSS
VL: DIQMTQSPSTLSASVGDRVTITCSASSRVGYMHWYQQKPGKAPKLLIYDTFKLASGVPSRFSGSGSGTEFTLTISSLQPDDFATYYCFQGSGYPFTFGGGTKVEIK

What was measured:
[1] = molecular target: T1, F protein of respiratory syncytial virus (RSV-Long strain), on infectious virus (respiratory syncytial virus (RSV-Long …, UniProt P12568 26-574)); assay: cell-based or functional assay
[2] = molecular target: T2, C-terminal truncated RSV F protein, secreted from recombinant baculovirus-infected cells (respiratory syncytial virus (strain not …, UniProt P03420 26-526)); assay: SPR (BIAcore), F protein immobilized, Fab injected
T2 construct: also called F antigen of RSV
T2 sequence (P03420 26-526): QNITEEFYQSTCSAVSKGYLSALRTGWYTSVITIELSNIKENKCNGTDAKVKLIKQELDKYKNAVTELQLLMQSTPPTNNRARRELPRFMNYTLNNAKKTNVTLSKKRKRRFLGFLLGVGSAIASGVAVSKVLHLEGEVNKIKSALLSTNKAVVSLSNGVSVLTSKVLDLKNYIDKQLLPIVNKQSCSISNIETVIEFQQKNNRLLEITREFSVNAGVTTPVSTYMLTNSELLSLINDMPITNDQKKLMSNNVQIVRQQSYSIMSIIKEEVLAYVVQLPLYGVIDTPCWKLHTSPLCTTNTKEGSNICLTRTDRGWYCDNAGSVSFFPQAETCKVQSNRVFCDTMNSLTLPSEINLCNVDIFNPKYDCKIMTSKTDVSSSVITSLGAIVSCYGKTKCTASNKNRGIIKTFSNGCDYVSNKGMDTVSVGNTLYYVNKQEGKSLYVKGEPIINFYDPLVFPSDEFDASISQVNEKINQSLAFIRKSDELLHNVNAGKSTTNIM
Procedure: A typical kinetic study involved the injection of 35 ml of Mab at varying concentrations (25-300 nM) in PBS buffer containing 0.05% Tween-20 (PBS/Tween). The flow rate was maintained at 5 ml/min, giving a 7 min binding phase. Following the injection of Mab, the flow was exchanged with PBS/Tween buffer for 30 min for determining the rate of dissociation. The sensor chip was regenerated between cycles with a 2 min pulse of 10 mM HCI.
More specifically, for measurement of kassoc (or kₒₙ), F protein was directly immobilized by the EDC/NHS method (EDC=N-ethyl-N′-[3-diethylaminopropyl)-carbodiimide). Briefly, 4 μg/ml of F protein in 10 mM NaOAc, pH 4.0 was prepared and about a 30 μl injection gives about 500 RU (response units) of immobilized F protein under the above referenced conditions. The blank flow cell (VnR immobilized-CM dextran surface) was subtracted for kinetic analysis. The column could be regenerated using 100 mM HCI (with 72 seconds of contact time being required for full regeneration). […] The dissociation phase was analyzed from 230 seconds (30 seconds after start of the dissociation phase) to 900 seconds. Kinetics were analyzed by 1:1 Langmuir fitting (global fitting). Measurements were done in HBS-EP buffer (10 mM HEPES, pH 7.4, 150 mM NaCl, 3 mM EDTA, 0.005% (v/v) Surfactant P20.
For measuring k_{off (or k}dissoc) the following conditions were employed. Briefly, 4100 RU of F protein were immobilized (as above) with CM-dextran used as the blank. Here, 3000 RU of Fab was bound (with dissociated Fab high enough to offset machine fluctuation). […] The dissociation phase was 6-15 hours at a flow rate of 5 μl/min.

[3] = molecular target: T1, F protein of respiratory syncytial …; assay: cell-based or functional assay; remark: listed apart in the source
[4] = molecular target: T2, C-terminal truncated RSV F protein, …; assay: SPR (BIAcore), F protein immobilized, whole antibody injected

| Binder | EC50 (nM), RSV microneutralization [1] | koff [2] | kon [2] | Mean IC50 µg/ml, RSV microneutralization [3] | Mean IC50 (Control) µg/ml, RSV microneutralization [3] | koff [4] | kon [4] |
| --- | --- | --- | --- | --- | --- | --- | --- |
| B1 | 2.88 nM | 0.00032 s⁻¹ | 185000 M⁻¹ s⁻¹ | – | – | – | – |
| B2 | 0.56 nM | 0.00028 s⁻¹ | 781000 M⁻¹ s⁻¹ | 0.0264 µg/mL | 0.0258 µg/mL | – | – |
| B3 | 3.24 nM | 0.000453 s⁻¹ | 790000 M⁻¹ s⁻¹ | 0.157 µg/mL | 0.125 µg/mL | – | – |
| B4 | 0.81 nM | 0.00023 s⁻¹ | 743000 M⁻¹ s⁻¹ | 0.0287 µg/mL | 0.031 µg/mL | – | – |
| B5 | 20.9 nM | 0.000717 s⁻¹ | 571000 M⁻¹ s⁻¹ | > 1 µg/mL | > 1 µg/mL | – | – |
| B6 | 0.29 nM | 0.000282 s⁻¹ | 663000 M⁻¹ s⁻¹ | 0.0407 µg/mL | 0.0326 µg/mL | – | – |
| B7 | 2.7 nM | – | – | – | – | 0.000249 s⁻¹ | 109000 M⁻¹ s⁻¹ |
| B8 | 2.67 nM | 0.000273 s⁻¹ | 375000 M⁻¹ s⁻¹ | – | – | – | – |
| B9 | 2.23 nM | 0.00025 s⁻¹ | 735000 M⁻¹ s⁻¹ | 0.12 µg/mL | 0.102 µg/mL | – | – |
| B10 | 1.06 nM | 0.000299 s⁻¹ | 527000 M⁻¹ s⁻¹ | 0.0464 µg/mL | 0.0351 µg/mL | – | – |
| B11 | 6.12 nM | – | – | 0.453 µg/mL | 0.535 µg/mL | 0.000735 s⁻¹ | 204000 M⁻¹ s⁻¹ |
| B12 | 1.59 nM | 0.000251 s⁻¹ | 370000 M⁻¹ s⁻¹ | – | – | – | – |
